Assay results from paper PMC10636204.

Target: T1, mouse TMEM63B (purified, GFP tag removed) (mouse), Q3TWI9
T1 chain: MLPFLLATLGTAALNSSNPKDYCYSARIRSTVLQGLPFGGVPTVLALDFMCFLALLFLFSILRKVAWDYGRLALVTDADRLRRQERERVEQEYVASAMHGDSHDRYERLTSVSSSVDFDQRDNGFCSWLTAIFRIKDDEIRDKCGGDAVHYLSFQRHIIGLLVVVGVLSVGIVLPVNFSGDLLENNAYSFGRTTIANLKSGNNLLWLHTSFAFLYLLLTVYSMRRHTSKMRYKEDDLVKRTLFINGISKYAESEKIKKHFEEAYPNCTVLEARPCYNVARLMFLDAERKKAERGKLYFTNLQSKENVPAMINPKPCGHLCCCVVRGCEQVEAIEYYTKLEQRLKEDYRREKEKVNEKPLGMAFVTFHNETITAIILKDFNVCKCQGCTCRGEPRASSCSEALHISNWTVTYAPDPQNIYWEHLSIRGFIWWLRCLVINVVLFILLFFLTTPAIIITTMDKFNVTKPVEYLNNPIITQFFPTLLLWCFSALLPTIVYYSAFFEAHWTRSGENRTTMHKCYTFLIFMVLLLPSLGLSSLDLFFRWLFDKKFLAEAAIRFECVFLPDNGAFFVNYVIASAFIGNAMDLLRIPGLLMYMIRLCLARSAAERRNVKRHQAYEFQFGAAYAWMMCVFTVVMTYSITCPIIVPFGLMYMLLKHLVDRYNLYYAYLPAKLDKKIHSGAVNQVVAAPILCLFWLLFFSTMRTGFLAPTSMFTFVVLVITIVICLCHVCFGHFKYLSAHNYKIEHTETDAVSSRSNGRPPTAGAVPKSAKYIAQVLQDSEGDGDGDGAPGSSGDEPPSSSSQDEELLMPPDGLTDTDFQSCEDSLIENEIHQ
Assay: cryo-EM 2D classification; purified mouse TMEM63B; 2D classification of particles, top/bottom views
Settings: remark: other sources report otherwise

B1: mouse TMEM63B (purified, GFP tag removed), Q3TWI9 1-832 (natural protein)
chain: MLPFLLATLGTAALNSSNPKDYCYSARIRSTVLQGLPFGGVPTVLALDFMCFLALLFLFSILRKVAWDYGRLALVTDADRLRRQERERVEQEYVASAMHGDSHDRYERLTSVSSSVDFDQRDNGFCSWLTAIFRIKDDEIRDKCGGDAVHYLSFQRHIIGLLVVVGVLSVGIVLPVNFSGDLLENNAYSFGRTTIANLKSGNNLLWLHTSFAFLYLLLTVYSMRRHTSKMRYKEDDLVKRTLFINGISKYAESEKIKKHFEEAYPNCTVLEARPCYNVARLMFLDAERKKAERGKLYFTNLQSKENVPAMINPKPCGHLCCCVVRGCEQVEAIEYYTKLEQRLKEDYRREKEKVNEKPLGMAFVTFHNETITAIILKDFNVCKCQGCTCRGEPRASSCSEALHISNWTVTYAPDPQNIYWEHLSIRGFIWWLRCLVINVVLFILLFFLTTPAIIITTMDKFNVTKPVEYLNNPIITQFFPTLLLWCFSALLPTIVYYSAFFEAHWTRSGENRTTMHKCYTFLIFMVLLLPSLGLSSLDLFFRWLFDKKFLAEAAIRFECVFLPDNGAFFVNYVIASAFIGNAMDLLRIPGLLMYMIRLCLARSAAERRNVKRHQAYEFQFGAAYAWMMCVFTVVMTYSITCPIIVPFGLMYMLLKHLVDRYNLYYAYLPAKLDKKIHSGAVNQVVAAPILCLFWLLFFSTMRTGFLAPTSMFTFVVLVITIVICLCHVCFGHFKYLSAHNYKIEHTETDAVSSRSNGRPPTAGAVPKSAKYIAQVLQDSEGDGDGDGAPGSSGDEPPSSSSQDEELLMPPDGLTDTDFQSCEDSLIENEIHQ
B1 was tested, and the stoichiometry N was 2.
